Assay results as given in article PMC4964977 (Biochemical Journal, 2016).
One block for each binder: values may come before it. Square brackets hold non-standard residues; d marks the D form. Ends that are not written are not given here. * marks the point of attachment. Biotin = O=C1N[C@H]2[C@H](CS[C@H]2CCCCC(=O)*)N1; pS = N[C@@H](COP(=O)(O)O)C(=O)O

Assays:
[1] = molecular target: T1, PLM 20-mer RCKFNQQQRTGEPDEEEGTF (R41–F60), on membrane (mouse, covalently linked to the membrane); experiment: peptide or protein array
T1 peptide: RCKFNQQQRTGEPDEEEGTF

[2] = molecular target: T2, native NCX1(301–320) peptide synthesized on membrane (rat, covalently linked to the membrane); experiment: peptide or protein array
T2 peptide: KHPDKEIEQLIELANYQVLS

- binding result [1]: binds
B1: biotin–NCX1(235–254) (peptide)
peptide: Biotin-KQRGMIIEHEGDRPASKTEI

- binding result [1]: binds
B2: biotin–NCX1(292–311) (peptide)
peptide: Biotin-ARILKELKQKHPDKEIEQLI

- binding result [2]: binds
B3: biotin–pSer68-PLMcyt (peptide)
peptide: Biotin-KRCRCKFNQQQRTGEPDEEEGTFRSSIRRL[pS]SRRR
modifications: cysteine pairing not given here

- binding result [1]: binds
B4: biotin–NCX1(301–320) (peptide)
peptide: Biotin-KHPDKEIEQLIELANYQVLS
